Data on 10 molecules can be found in patent US20240189392A1 (AMBRX, published 2024).

Several values for one entry are separate records, joined by “and”; a condition that tells them apart may be missing. Equal values may be shown once. Non-standard residues stand in square brackets, D forms with d. No end group written: not given here. PEG20K = 20 kDa polyethylene glycol, linked to pAF (e.g. via oxime linkage); Phe(4-Ac) = CC(=O)c1ccc(C[C@H](N)C(=O)O)cc1

The chains are these.
T1: human RXFP1 (human, UniProt Q9HBX9 1-757)
T1 sequence (looked up): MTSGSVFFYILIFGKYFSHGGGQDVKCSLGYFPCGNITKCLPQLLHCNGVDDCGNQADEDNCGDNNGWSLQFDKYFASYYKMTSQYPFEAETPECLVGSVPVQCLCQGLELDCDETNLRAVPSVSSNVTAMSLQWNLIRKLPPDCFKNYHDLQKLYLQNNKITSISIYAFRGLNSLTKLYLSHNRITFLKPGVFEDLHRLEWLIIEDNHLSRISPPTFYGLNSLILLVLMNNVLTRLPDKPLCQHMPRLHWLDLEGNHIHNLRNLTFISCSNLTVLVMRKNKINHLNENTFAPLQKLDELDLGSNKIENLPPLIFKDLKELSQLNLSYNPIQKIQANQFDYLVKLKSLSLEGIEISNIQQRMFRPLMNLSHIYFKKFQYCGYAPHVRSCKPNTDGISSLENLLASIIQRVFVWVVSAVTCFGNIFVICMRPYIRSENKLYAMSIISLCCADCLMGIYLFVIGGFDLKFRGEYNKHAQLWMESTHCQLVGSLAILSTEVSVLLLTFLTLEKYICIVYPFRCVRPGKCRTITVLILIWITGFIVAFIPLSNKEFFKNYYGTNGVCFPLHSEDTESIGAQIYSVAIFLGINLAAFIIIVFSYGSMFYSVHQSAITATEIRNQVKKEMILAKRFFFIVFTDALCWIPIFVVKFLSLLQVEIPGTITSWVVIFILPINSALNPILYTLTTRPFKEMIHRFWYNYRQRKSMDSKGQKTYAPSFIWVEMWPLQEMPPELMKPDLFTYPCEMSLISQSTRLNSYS

B1: RLX-A-BE5-20KPEG (ligand)
chain 1: QLYSALANKCCHVGCTKRSLARFC
chain 2: ASWM[Phe(4-Ac)](PEG20K)EVIKLCGRELVRAQIAICGMSTWS
modifications: not fully specified (bridges); ends and bridges not checked
B2: RLX-A-AA5-20KPEG (ligand)
chain 1: QLYSXLANKCCHVGCTKRSLARFC
chain 2: ASWMEEVIKLCGRELVRAQIAICGMSTWS
modifications: not fully specified; para-acetylphenylalanine (pAF) at position 5 of the A chain, 20K PEGylated
B3: RLX-D-AL2-20KPEG (ligand)
chain 1: QXYSALANKCCHVGCTKRSLARFC
chain 2: DSWMEEVIKLCGRELVRAQIAICGMSTWS
modifications: not fully specified; para-acetylphenylalanine (pAF) at position 2 of the A chain, 20K PEGylated
B4: RLX-A-BW28-20KPEG (ligand)
chain 1: QLYSALANKCCHVGCTKRSLARFC
chain 2: ASWMEEVIKLCGRELVRAQIAICGMST[Phe(4-Ac)](PEG20K)S
modifications: not fully specified (bridges); ends and bridges not checked
B5: RLX-A-AV13-20KPEG (ligand)
chain 1: QLYSALANKCCHXGCTKRSLARFC
chain 2: ASWMEEVIKLCGRELVRAQIAICGMSTWS
modifications: not fully specified; para-acetylphenylalanine (pAF) at position 13 of the A chain, 20K PEGylated
B6: RLX-A-AR18-20KPEG (ligand)
chain 1: QLYSALANKCCHVGCTKXSLARFC
chain 2: ASWMEEVIKLCGRELVRAQIAICGMSTWS
modifications: not fully specified; para-acetylphenylalanine (pAF) at position 18 of the A chain, 20K PEGylated
B7: RLX-A-BA18-20KPEG (ligand)
chain 1: QLYSALANKCCHVGCTKRSLARFC
chain 2: ASWMEEVIKLCGRELVR[Phe(4-Ac)](PEG20K)QIAICGMSTWS
modifications: not fully specified (bridges); ends and bridges not checked
B8: RLX-D-BE5-20KPEG (ligand)
chain 1: QLYSALANKCCHVGCTKRSLARFC
chain 2: DSWM[Phe(4-Ac)](PEG20K)EVIKLCGRELVRAQIAICGMSTWS
modifications: not fully specified (bridges); ends and bridges not checked
B9: RLX-A-BV7-20KPEG (ligand)
chain 1: QLYSALANKCCHVGCTKRSLARFC
chain 2: ASWMEE[Phe(4-Ac)](PEG20K)IKLCGRELVRAQIAICGMSTWS
modifications: not fully specified (bridges); ends and bridges not checked
B10: RLX-A-WT (human relaxin 2 with alanine at the first position of the B chain) (ligand)
chain 1: QLYSALANKCCHVGCTKRSLARFC
chain 2: ASWMEEVIKLCGRELVRAQIAICGMSTWS
modifications: not fully specified (bridges); ends and bridges not checked

The target in the first assay is T1, human RXFP1. The experiment in a line: cell-based or functional assay.
Take B1: the “In vitro Activity Fold Loss” value turned out to be 17 fold.
As to B2, the “In vitro Activity Fold Loss” value stood at 12 fold.
As to B3, the “In vitro Activity Fold Loss” value is 17 fold.
Regarding B4, the “In vitro Activity Fold Loss” value was determined as 48 fold.
Consider B5, for which the “In vitro Activity Fold Loss” value is 17 fold.
In the case of B6, the “In vitro Activity Fold Loss” value was 21 fold.
Take B7: the “In vitro Activity Fold Loss” value was 48 fold.
With B8, the “In vitro Activity Fold Loss” value worked out at 22 fold.
Still for that read-out and setting: to B9 belongs 15 fold.

The next assay addresses T1, human RXFP1. The assay can be described thus: cell-based or functional assay. This is another data set of the same source.
In the case of B1, the “Functional Assay Raw EC50 Values [ng/mL]; cAMP increase in THP-1 cells, 11/5/2010” value is 45 ng/mL.
On the same count and under the same terms, then B2, with 41 ng/mL; and B3, with 43 ng/mL.
As to B4, the “Functional Assay Raw EC50 Values [ng/mL]; cAMP increase in THP-1 cells, 11/4/2010” value is 172 ng/mL.
As to B5, the “Functional Assay Raw EC50 Values [ng/mL]; cAMP increase in THP-1 cells, 11/5/2010” value was 56 ng/mL.
Same read-out and setting: to B6 belongs 68 ng/mL.
With B10, the “Functional Assay Raw EC50 Values [ng/mL]; cAMP increase in THP-1 cells, 11/4/2010” value came to 3.6 ng/mL; the “Functional Assay Raw EC50 Values [ng/mL]; cAMP increase in THP-1 cells, 11/5/2010” value is 3.3 ng/mL and 2.6 ng/mL.
Turning to B7, the “Functional Assay Raw EC50 Values [ng/mL]; cAMP increase in THP-1 cells, 11/4/2010” value stood at 172 ng/mL.
Regarding B8, the “Functional Assay Raw EC50 Values [ng/mL]; cAMP increase in THP-1 cells, 11/5/2010” value amounted to 58 ng/mL.
Take B9: the “Functional Assay Raw EC50 Values [ng/mL]; cAMP increase in THP-1 cells, 11/4/2010” value turned out to be 54 ng/mL.
